The values that follow come from article PMC9742257.

Experiment [1] deals with N-terminal tagged 3XFLAG artemin construct (A. fransciscina). Nature of the experiment: cryo-EM structure; single particle cryo-EM, 0.2-1.5 mg/ml protein on Quantifoil grids, 300 keV Titan Krios; C1 ab-initio then octahedral symmetry imposed.
The target is the same in experiment [2]. Nature of the experiment: native MS; 24mer isolated (manual fixed quad profile of 10,000), then collision induced dissociation (argon); released subunits observed; dimers are held by inter-subunit disulfides.
For experiment [3] the target is unchanged. The experiment in a line: native MS; intact complex; 200 mM ammonium acetate, 1-2 uM protein, Waters Synapt G2s-i.
Experiment [4] concerns the target artemin with a C-terminal 6xHis tag (A. fransciscina). The experiment in a line: cryo-EM structure; single particle cryo-EM, 0.2-1.5 mg/ml protein on Quantifoil grids, 300 keV Titan Krios; C1 ab-initio then octahedral symmetry imposed.
Experiment [5] has the same target. Nature of the experiment: native MS; 24mer isolated (manual fixed quad profile of 10,000), then collision induced dissociation (argon); released subunits observed; dimers are held by inter-subunit disulfides.
Experiment [6] has the same target. The experiment in a line: native gel or EMSA; Native PAGE of the protein after affinity purification and SEC.
Experiment [7] shares this target. Nature of the experiment: native MS; intact complex; 200 mM ammonium acetate, 1-2 uM protein, Waters Synapt G2s-i.
For experiment [8], the target named is fluorescent artemin-His (A. fransciscina). The experiment in a line: native MS; 24mer isolated (manual fixed quad profile of 10,000), then collision induced dissociation (argon); released subunits observed; dimers are held by inter-subunit disulfides.
Experiment [9] shares this target. The experiment in a line: native MS; intact complex; 200 mM ammonium acetate, 1-2 uM protein, Waters Synapt G2s-i.

Turning to “N-terminal tagged 3XFLAG artemin construct (natural protein)”, the stoichiometry N in experiment [1] was 24; in experiment [2], 2; in experiment [3], 24.

As for “artemin with a C-terminal 6xHis tag (natural protein)”, the stoichiometry N in [4] was determined as 24; in experiment [5], 2; in experiment [6] it was 24; in experiment [7], 24.

Take “fluorescent artemin-His (natural protein)”: the results for the stoichiometry N in experiment [8] and in experiment [9] were 2 and 24, respectively.

As a reminder, the stoichiometry N is the number of molecules, sites or subunits per partner or assembly.
